Measured values published in US20190211359A1 (INSTITUTE FOR CANCER RESEARCH D B A THE RESEARCH INSTITUTE …, published 2019).

How the values were obtained:
[1] = biological target: T1, receptor-interacting serine/threonine-protein kinase 3 (RIPK3), murine (mouse, UniProt Q9QZL0 1-486); assay: RIPK3 immunoprecipitated from PR8-infected wild-type MEFs, immunoblot for DAI (FIG. 13A); also seen with re-expressed wild type DAI (FIG. 13D)
T1 construct: Endogenous protein of MEFs, pulled down with anti-RIPK3 antibody; also called RIP3
T1 sequence (Q9QZL0 whole entry): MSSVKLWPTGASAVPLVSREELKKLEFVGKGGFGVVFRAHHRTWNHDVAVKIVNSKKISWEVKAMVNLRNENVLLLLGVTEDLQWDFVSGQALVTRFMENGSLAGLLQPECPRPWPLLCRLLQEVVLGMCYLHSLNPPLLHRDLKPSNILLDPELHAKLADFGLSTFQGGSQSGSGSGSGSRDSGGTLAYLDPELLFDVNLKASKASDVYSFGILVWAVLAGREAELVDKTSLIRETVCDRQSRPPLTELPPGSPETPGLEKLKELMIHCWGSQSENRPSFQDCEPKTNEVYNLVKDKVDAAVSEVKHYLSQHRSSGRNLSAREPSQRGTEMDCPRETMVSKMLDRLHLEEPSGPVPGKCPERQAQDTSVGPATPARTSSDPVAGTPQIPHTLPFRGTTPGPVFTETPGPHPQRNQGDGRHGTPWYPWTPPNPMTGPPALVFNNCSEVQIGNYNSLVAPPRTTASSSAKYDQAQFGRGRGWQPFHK
Method: FIGS. 13A through 13F show DAI is required for IAV induced formation of RIPK3-containing necrosome complex. […] In parallel, wild-type (WT), zbp1^{-/-}, and ripk3^{-/-} MEFs were treated with […] and phosphorylated MLKL. […] In parallel, reconstituted cells were treated with TCZ and examined for expression of phosphorylated p MLKL. […] Whole-cell extract (5% input) was examined in parallel for RIPK3, DAI and IAV NS1 proteins.

[2] = biological target: T1, receptor-interacting …; assay: anti-RIPK3 immunoprecipitation from PR8-infected reconstituted zbp1-/- MEFs, immunoblot (FIG. 13D)

Binder | binding result [1] | binding result [2]
DNA-dependent activator of interferon-regulatory factors (DAI), wild-type full-length murine (other, mouse, UniProt Q9QY24 1-411, looked up, also called ZBP1; DLM-1) MAEAPVDLSTGDNLEQKILQVLSDDGGPVKIGQLVKKCQVPKKTLNQVLYRLKKEDRVSSPEPATWSIGGAASGDGAPAIPENSSAQPSLDERILRFLEANGPHRALHIAKALGMTTAKEVNPLLYSMRNKHLLSYDGQTWKIYHSRQEGQDIAHSGVTQESPAIICQHNPVNMICQQGANSHISIANSNAIQIGHGNVIVREKACGEPGPRTSHPLPLAWDASAQDMPPVAHGAQYIYMDKSLLQQVQLGHHNEMSLVGDAGKHPSYSFSDSPPEVSTTTADPGASFNMQTFEPGPHPEGDTVQTVHIKSCFLEDATIGNGNKMTIHLRSKGEVMESGDSEEPKKEDTGTSSEATPPRSCQHTPSDSMLPTSELRAMALGDSSPQTTEPVLREHEVQDIESSQDTGLSKQ | binds | 
murine DAI with mutant RHIM domain (amino acids 192-195 IQIG to AAAA) (other, mouse, UniProt Q9QY24 1-411, looked up, also called DAI mutRHIM) MAEAPVDLSTGDNLEQKILQVLSDDGGPVKIGQLVKKCQVPKKTLNQVLYRLKKEDRVSSPEPATWSIGGAASGDGAPAIPENSSAQPSLDERILRFLEANGPHRALHIAKALGMTTAKEVNPLLYSMRNKHLLSYDGQTWKIYHSRQEGQDIAHSGVTQESPAIICQHNPVNMICQQGANSHISIANSNAAAAAHGNVIVREKACGEPGPRTSHPLPLAWDASAQDMPPVAHGAQYIYMDKSLLQQVQLGHHNEMSLVGDAGKHPSYSFSDSPPEVSTTTADPGASFNMQTFEPGPHPEGDTVQTVHIKSCFLEDATIGNGNKMTIHLRSKGEVMESGDSEEPKKEDTGTSSEATPPRSCQHTPSDSMLPTSELRAMALGDSSPQTTEPVLREHEVQDIESSQDTGLSKQ |  | no binding
